Reference: publication PMC8004701, “An Arabidopsis Oxalyl-CoA Decarboxylase, AtOXC, Is Important for Oxalate Catabolism in Plants” (International Journal of Molecular Sciences, 2021)

Target: the molecule itself
Assay: SEC; Superdex 200 Increase 10/300 GL, 100 mM sodium phosphate pH 7.5, 100 mM NaCl, 10 mM beta-mercaptoethanol; standards aldolase (158 kDa) and conalbumin (75 kDa); AtOXC eluted at 13.0 mL

B1: Arabidopsis oxalyl-CoA decarboxylase (AtOXC), His-tagged (enzyme, Arabidopsis thaliana, UniProt Q9LF46 1-572, looked up)
chain: MADKSETTPPSIDGNVLVAKSLSHLGVTHMFGVVGIPVTSLASRAMALGIRFIAFHNEQSAGYAASAYGYLTGKPGILLTVSGPGCVHGLAGLSNAWVNTWPMVMISGSCDQRDVGRGDFQELDQIEAVKAFSKLSEKAKDVREIPDCVSRVLDRAVSGRPGGCYLDIPTDVLRQKISESEADKLVDEVERSRKEEPIRGSLRSEIESAVSLLRKAERPLIVFGKGAAYSRAEDELKKLVEITGIPFLPTPMGKGLLPDTHEFSATAARSLAIGKCDVALVVGARLNWLLHFGESPKWDKDVKFILVDVSEEEIELRKPHLGIVGDAKTVIGLLNREIKDDPFCLGKSNSWVESISKKAKENGEKMEIQLAKDVVPFNFLTPMRIIRDAILAVEGPSPVVVSEGANTMDVGRSVLVQKEPRTRLDAGTWGTMGVGLGYCIAAAVASPDRLVVAVEGDSGFGFSAMEVETLVRYNLAVVIIVFNNGGVYGGDRRGPEEISGPHKEDPAPTSFVPNAGYHKLIEAFGGKGYIVETPDELKSALAESFAARKPAVVNVIIDPFAGAESGRLQHKN
notes: Oxalyl-CoA decarboxylase AtOXC, Arabidopsis thaliana, locus At5g17380; full-length cDNA; monomer about 61.5 kDa; No removal of the tag is reported; also called His-AtOXC; His-tagged AtOXC; source: E. coli BLR (DE3), purified (nickel-nitriloacetic acid agarose, desalted on Sephadex G-25)
**Q.** Which “stoichiometry N” value does the source give for B1 here?
**A.** 2
